Measured values taken from patent US20140037650A1 (UNIVERSITY OF CHICAGO, published 2014).
Residue numbers refer to the chain shown, from its start.

B1: MAb 5H8 (antibody, V domains shown)
VH: GLTGEPGTSVKMSCRTSGYTFTEYTMHWVKQSHEKRLEWIGGIDPSNGDTSYNQKFKGKATLTVDKSSSSAYMDLRSLTSVDSAIYYCARLEGVLPLDYWGHGTTLTVSS
VL: DIVMTQSQKFMSTSVRDRVAVTCKASQNVGTNVAWYQQKPGQSPKALIYSASYRYSGVPDRFTGSGSGTDFTLTISNVQSEDLAEYFCQQYNSYPYTFGGGTKLEVK
notes: also called 5H8.9
B2: MAb 3H11 (antibody, V domains shown)
VH: SLDLTGEPGASVKMSCRTSGYTFTEYTMHWVKQSHEKSLEWIGGIDPDNGDTSFNQKFKGKATLTVDKSSSTAYMELRSLTYDDTAIYLCARLEGVLPLDYWGQGTTLTVSS
VL: B1 VL
notes: also called 3H11.47
B3: MAb 3D8 (antibody, V domains shown)
VH: QVQLQQSGAELVRPGTSVKVSCKASGNAFTNYLIEWIKQRPGQGLEWIGVINPGSGITNYNEKFKGKATLTADKSSNTAYMQLSSLSSDDSAVYFCSGSANWFAYWGQGTLVTVSA
VL: DVVMTQTPLSLPVSLGDQASISCRSSQSLVYSNGNTYLHWFLQKPGQSPKLLIYKVSNRFSGVPDRFSGSGSGTDFTLKISRVEAEDLGVYFCSQTTHIPLTFGAGTKLELK
B4: MAb 4H7 (antibody, V domains shown)
VH: EVQLLQSGPELVKPGTSVKMSCRTSGYTFTEYTMHWVKQSHEKRLEWIGGIDPSNGDTSYNQKFKGKATLTVDKSSSSAYMDLRSLTSVDSAIYYCARLEGVLPLDYWGHGTTLTVSS
VL: B3 VL
B5: MAb 7E9 (antibody, V domains shown)
VH: DVQLQESGPGLVKPSQSLSLTCSVTGHSITSGYYWNWIRQFPGNKLEWMGYISFDGRNKYNPSLKNRISITRDTSKNQFFLKLNSVTSEDTATYFCTRLSYSTLDYWGQGTSVTVSS
VL: B3 VL with V30L, F41Y, G69A, T96S, I99V
B6: MAb 7D4 (antibody, V domains shown)
VH: EVQLQESGPELVKPGTSVWISCKTSGFTFTKYTMHWVKQSHGKTLEWIGGIDPNNGDTSYNQKFKDKATLTVDKSSSTAYMELRSLTSEDSAVFFCVRLEGSLPLDYWGQGTTLTVSS
VL: DVGMTQTPLSLPVSLGDQASISCGSSQSLLHSNGKTYLHWYLQKPGQSPKLLIYKVSNRFSGVPDRFSGSGSGTYFTLKITRVEAEDLGVYFCSQTTHVPFTFGSGTKLEIK
B7: MAb 1B8 (antibody, V domains shown)
VH: B6 VH
VL: DVVMTQTPLSLPVSLGDQASISCRSSQSLVHSNGNTYLHWYLQKPGQSPKLLIYKVSSRFSGVPDRFSGSGSGTDFTLKISRVEAEDLGVYFCSQSTHVPYTFGGGTKLEIKR

target: T1, Poly-histidine tagged IsdB (Staphylococcus aureus, UniProt A5IS15 41-613); experiment: ELISA, coated poly-His IsdB
T1 construct: also called IsdBFL; recombinant IsdB
Description: Proteins were used to coat Nunc MaxiSorp 96-well plates at a concentration of 1 μg ml⁻¹ PBS. Plates were washed and incubated with PBS-Tween and variable concentrations of MAbs.

Binder | binding result
B1 | no binding
B2 | no binding

target: GST-tagged IsdBC (Staphylococcus aureus Newman, UniProt A5IS15 328-645); experiment: cell-based or functional assay

Binder | Δheme binding: percent change in Δ peak absorbance at 405 nm and 368 nm [%]
B3 | 29.4
B4 | 29
B5 | 29

target: T2, GST-tagged IsdA (Staphylococcus aureus, UniProt A5IS16 47-316); experiment: cell-based or functional assay
T2 sequence: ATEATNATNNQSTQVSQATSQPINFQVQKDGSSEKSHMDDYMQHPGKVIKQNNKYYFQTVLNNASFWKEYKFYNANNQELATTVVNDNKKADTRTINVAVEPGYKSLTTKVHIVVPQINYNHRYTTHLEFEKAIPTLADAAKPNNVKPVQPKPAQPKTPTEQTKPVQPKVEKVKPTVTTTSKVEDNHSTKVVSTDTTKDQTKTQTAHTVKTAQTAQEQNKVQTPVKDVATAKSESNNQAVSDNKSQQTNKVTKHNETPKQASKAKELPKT

Binder | Δheme binding: percent change in Δ peak absorbance at 405 nm and 368 nm [%]
B3 | 34
B1 | 0.5
B6 | -0.6
B2 | 0.5
B4 | 34.4
B5 | 35
B7 | 0.5
